Residue numbers refer to the chain shown, from its start.

What all share (assay): SPR, antibody captured, C2 as analyte;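 note: biacore SPR at 37 °C, anti-C2 mAbs captured via goat anti-human IgG on CM5 chips, double-referenced sensorgrams fit to a 1:1 kinetic or steady-state model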
The target in experiment [1] is T1, human C2 G677A (human, UniProt P06681 21-752).
T1 sequence: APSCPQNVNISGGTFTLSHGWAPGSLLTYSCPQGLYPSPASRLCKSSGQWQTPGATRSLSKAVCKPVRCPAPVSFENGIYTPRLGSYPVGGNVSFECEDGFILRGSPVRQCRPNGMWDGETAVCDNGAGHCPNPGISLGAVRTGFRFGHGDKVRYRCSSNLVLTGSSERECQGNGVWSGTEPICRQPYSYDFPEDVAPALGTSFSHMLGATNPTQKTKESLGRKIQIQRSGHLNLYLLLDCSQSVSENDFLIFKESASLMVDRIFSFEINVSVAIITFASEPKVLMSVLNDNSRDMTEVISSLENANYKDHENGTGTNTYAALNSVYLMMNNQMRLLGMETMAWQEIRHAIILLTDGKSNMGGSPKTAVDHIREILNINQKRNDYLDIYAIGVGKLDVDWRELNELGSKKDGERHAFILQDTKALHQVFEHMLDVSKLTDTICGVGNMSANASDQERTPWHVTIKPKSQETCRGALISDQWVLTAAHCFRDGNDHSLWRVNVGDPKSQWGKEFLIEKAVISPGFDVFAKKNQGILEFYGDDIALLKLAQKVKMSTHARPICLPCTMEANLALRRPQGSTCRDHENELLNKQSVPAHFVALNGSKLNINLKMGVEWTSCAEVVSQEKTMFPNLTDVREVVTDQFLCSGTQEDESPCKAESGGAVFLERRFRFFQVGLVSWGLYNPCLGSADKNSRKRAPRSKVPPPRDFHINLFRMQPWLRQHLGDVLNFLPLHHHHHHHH

Experiment [2] deals with T2, human complement C2 (wild type) (human, UniProt P06681 21-752).
T2 construct: Full-length human C2 (NP_000054) with C-terminal 8x His tag, secreted from Expi293F cells and purified from the supernatant; also called WT; huC2
T2 sequence: T1 sequence with A657G

For experiment [3], the target named is T3, human C2 E686A (human, UniProt P06681 21-752).
T3 sequence: T1 sequence with A657G, E666A

B1: RF16-226 (antibody, human IgG4 S228P, lambda)
heavy: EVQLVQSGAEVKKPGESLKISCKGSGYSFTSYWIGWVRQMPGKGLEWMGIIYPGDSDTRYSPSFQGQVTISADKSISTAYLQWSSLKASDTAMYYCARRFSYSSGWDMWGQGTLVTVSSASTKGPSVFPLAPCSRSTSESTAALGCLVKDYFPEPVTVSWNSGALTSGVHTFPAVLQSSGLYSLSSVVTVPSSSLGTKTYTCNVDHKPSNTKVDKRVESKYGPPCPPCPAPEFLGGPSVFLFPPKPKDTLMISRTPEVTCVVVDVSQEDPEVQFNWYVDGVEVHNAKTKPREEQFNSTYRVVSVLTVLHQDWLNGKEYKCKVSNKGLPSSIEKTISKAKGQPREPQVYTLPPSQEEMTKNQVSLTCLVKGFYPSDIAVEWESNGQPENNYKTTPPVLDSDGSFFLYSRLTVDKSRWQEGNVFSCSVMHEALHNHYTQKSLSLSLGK
light: SYELTQPPSVSVSPGQTARITCSGDALTSKYVAWYQQKSGLAPLLVIYEDTRRPSGIPAKFSGSSSGSVATLTISGAHGDDEADYYCYSTDASGHQRVFGGGTKLTVLSQPKAAPSVTLFPPSSEELQANKATLVCLISDFYPGAVTVAWKADGSPVKAGVETTKPSKQSNNKYAASSYLSLTPEQWKSHRSYSCQVTHEGSTVEKTVAPTECS
notes: pH-dependent anti-C2 antibody from a phage display library; also called WT
Broadly, the Kd is the free concentration of one partner at which half of the binding sites on the other are occupied at equilibrium, for simple one-to-one binding. A high value points to lower affinity. For B1, the dissociation constant (Kd) in experiment [1] is 8.7 nM; in experiment [2], 10.1 nM; in experiment [3], 47.3 nM.

(Values after patent US20220332804A1 (CSL INNOVATION, published 2022).)
